Reference: publication PMC3192257 (Molecular microbiology, 2011)

B1: His-CsrA (CsrA containing six His residues at the C-terminus) (natural protein, Bacillus subtilis, UniProt P33911 1-74, looked up)
chain: MLVLSRKINEAIQIGADIEVKVIAVEGDQVKLGIDAPKHIDIHRKEIYLTIQEENNRAAALSSDVISALSSQKK
B2: FliW (natural protein, Bacillus subtilis (strain 3610), UniProt P96503 1-143, looked up)
chain: MIIHTKYHGQMNIKEEQIILFESGIPGFLEEKQFVILPLSEDSPFVALQSVTSENLAFIVVSPFIFFKNYEFDLDESTAELLDIDNIQDVEVMTILTMAEPFEKSTANLLAPIIVNRKNMMAKQVVLHDSSYTTKHPIGGESC
B3: 6His-Hag fusion protein (flagellin) (natural protein)
chain: not shown

What was measured:
FliW = molecular target: B2; assay: ITC
[1] = molecular target: B3; assay: ITC

Binder | Kd (FliW) [nM] | dH (FliW) [kcal/mol] | stoichiometry N (FliW) | Kd [1] [nM]
B1 | 20 | -15.4 | 0.46 | 
B2 |  |  |  | 140
B3 |  | -22 | 1.29 | 
